Paper PMC13276077

B1: N601 nucleosome core particle unmethylated (nucleosome)
DNA 1: CAGGATGTATATATCTGACACGTGCCTGGAGACTAGGGAGTAATCCCCTTGGCGGTTAAAACGCGGGGGACAGCGCGTACGTGCGTTTAAGCGGTGCTAGAGCTGTCTACGACCAATTGAGCGGCCTCGGCACCGGGATTCTCCA
DNA 2: TGGAGAATCCCGGTGCCGAGGCCGCTCAATTGGTCGTAGACAGCTCTAGCACCGCTTAAACGCACGTACGCGCTGTCCCCCGCGTTTTAACCGCCAAGGGGATTACTCCCTAGTCTCCAGGCACGTGTCAGATATATACATCCTG
B2: 15-N601-15 nucleosome unmethylated (nucleosome)
DNA 1: ATGGAACACATTGCACAGGATGTATATATCTGACACGTGCCTGGAGACTAGGGAGTAATCCCCTTGGCGGTTAAAACGCGGGGGACAGCGCGTACGTGCGTTTAAGCGGTGCTAGAGCTGTCTACGACCAATTGAGCGGCCTCGGCACCGGGATTCTCCAGGGCGGCCGCGTATT
DNA 2: AATACGCGGCCGCCCTGGAGAATCCCGGTGCCGAGGCCGCTCAATTGGTCGTAGACAGCTCTAGCACCGCTTAAACGCACGTACGCGCTGTCCCCCGCGTTTTAACCGCCAAGGGGATTACTCCCTAGTCTCCAGGCACGTGTCAGATATATACATCCTGTGCAATGTGTTCCAT
B3: 40 bp dsDNA (dsDNA)
DNA 1: AATACGCGGCCGCCCTGGAGAATCCCGGTGCCGAGGCCGC
DNA 2: GCGGCCTCGGCACCGGGATTCTCCAGGGCGGCCGCGTATT

Tests used:
[1] = target: HisMBP-MeCP2 162-309;histone octamer (Homo sapiens;, UniProt P51608;P0C0S8;P62807;P68431;P62805 162-309;2-130;2-126;2-136;2-103, |H2B T115C;H3.1 C96S;C110A); experiment: EMSA; 20 mM HEPES pH 7.5, 75 mM NaCl, 125 mM KCl, 50 uM EDTA, 2.5 mM beta-mercaptoethanol, 5% glycerol, BSA, 1.58 uM 47 bp competitor DNA (nucleosome assays); absent w
[2] = target: HisMBP-MeCP2 162-309;histone octamer (Homo sapiens;Homo sapiens, UniProt P51608;P0C0S8;P62807;P68431;P62805 162-309;2-130;2-126;2-136;2-103, |H3.1 C96S;C110A); experiment: as above
[3] = target: MeCP2 full-length, e2 isoform;histone octamer (Homo sapiens;, UniProt P51608;P0C0S8;P62807;P68431;P62805 1-486;2-130;2-126;2-136;2-103, |H2B T115C;H3.1 C96S;C110A); experiment: as above
[4] = target: HisMBP-MeCP2 205-257 (DIR);histone octamer (Homo sapiens;, UniProt P51608;P0C0S8;P62807;P68431;P62805 205-257;2-130;2-126;2-136;2-103, |H2B T115C;H3.1 C96S;C110A); experiment: as above
[5] = target: HisMBP-MeCP2 162-309;histone octamer, acidic patch mutant (Homo sapiens;Homo sapiens, UniProt P51608;P0C0S8;P62807;P68431;P62805 162-309;2-130;2-126;2-136;2-103, |H2A E61A;E91A;E92A;H2B E113A;H3.1 C96S;C110A); experiment: EMSA; acidic patch mutant histone octamer; 20 mM HEPES pH 7.5, 75 mM NaCl, 125 mM KCl, 50 uM EDTA, 2.5 mM beta-mercaptoethanol, 5% glycerol, BSA, 1.58 uM 47 bp competitor DNA (nucleosome assays); absent w
[6] = target: MeCP2 full-length, e2 isoform;histone H1.0;histone octamer (Homo sapiens;Homo sapiens;, UniProt P51608;P07305;P0C0S8;P62807;P68431;P62805 1-486;1-194;2-130;2-126;2-136;2-103, ||H2B T115C;H3.1 C96S;C110A); experiment: EMSA; histone H1.0 pre-bound (chromatosome); 20 mM HEPES pH 7.5, 75 mM NaCl, 125 mM KCl, 50 uM EDTA, 2.5 mM beta-mercaptoethanol, 5% glycerol, BSA, 1.58 uM 47 bp competitor DNA (nucleosome assays); absent w
[7] = target: MeCP2 AT-DIRmut;histone octamer (Homo sapiens;, UniProt P51608;P0C0S8;P62807;P68431;P62805 1-486;2-130;2-126;2-136;2-103, R188G;R190G;K254N;K256N;R268Q|H2B T115C;H3.1 C96S;C110A); experiment: EMSA; 20 mM HEPES pH 7.5, 75 mM NaCl, 125 mM KCl, 50 uM EDTA, 2.5 mM beta-mercaptoethanol, 5% glycerol, BSA, 1.58 uM 47 bp competitor DNA (nucleosome assays); absent w
[8] = target: MeCP2 R133G;histone octamer (Homo sapiens;, UniProt P51608;P0C0S8;P62807;P68431;P62805 1-486;2-130;2-126;2-136;2-103, R133G|H2B T115C;H3.1 C96S;C110A); experiment: as above
[9] = target: MeCP2 MBD;histone octamer (Homo sapiens;, UniProt P51608;P0C0S8;P62807;P68431;P62805 77-167;2-130;2-126;2-136;2-103, |H2B T115C;H3.1 C96S;C110A); experiment: as above
HisMBP-DNMT3A 1-427 = HisMBP-DNMT3A 1-427 (UniProt Q9Y6K1 1-427); experiment: EMSA; 20 mM HEPES pH 7.5, 75 mM NaCl, 125 mM KCl, 50 uM EDTA, 2.5 mM beta-mercaptoethanol, 5% glycerol, BSA, 1.58 uM 47 bp competitor DNA (nucleosome assays; absent with free DNA), room temperature 30 min; details: protein: recombinant; tags: His-MBP; label: 5' 6-FAM; blunt
HisMBP-DNMT3A 1-427, sequence (Q9Y6K1 1-427): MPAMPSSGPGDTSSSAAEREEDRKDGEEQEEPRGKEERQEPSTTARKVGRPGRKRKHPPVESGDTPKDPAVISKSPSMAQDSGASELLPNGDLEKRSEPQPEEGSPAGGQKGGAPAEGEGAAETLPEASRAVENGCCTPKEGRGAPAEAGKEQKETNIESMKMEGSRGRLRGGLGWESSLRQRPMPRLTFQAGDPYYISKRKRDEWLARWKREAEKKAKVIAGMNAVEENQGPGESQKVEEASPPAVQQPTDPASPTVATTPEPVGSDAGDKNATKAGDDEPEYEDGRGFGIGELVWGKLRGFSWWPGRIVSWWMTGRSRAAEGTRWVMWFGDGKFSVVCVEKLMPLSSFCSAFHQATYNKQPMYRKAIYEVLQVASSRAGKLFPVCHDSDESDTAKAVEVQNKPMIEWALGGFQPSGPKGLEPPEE

HisMBP-MeCP2 162-309 = HisMBP-MeCP2 162-309 (Homo sapiens, UniProt P51608 162-309); experiment: as above; details: protein: recombinant; tags: His-MBP; label: 5' 6-FAM; blunt
[10] = target: HisMBP-MeCP2 205-257 (DIR) (Homo sapiens, UniProt P51608 205-257); experiment: as above; details: protein: recombinant; tags: His-MBP; label: 5' 6-FAM; blunt
HisMBP-MeCP2 272-309 = HisMBP-MeCP2 272-309 (Homo sapiens, UniProt P51608 272-309); experiment: as above; details: protein: recombinant; tags: His-MBP; label: 5' 6-FAM; blunt
[11] = target: HisMBP-DNMT3A 1-427 K54A K56A (UniProt Q9Y6K1 1-427, K54A;K56A); experiment: as above; details: protein: recombinant; tags: His-MBP; label: 5' 6-FAM; blunt
HisMBP-DNMT3A 1-427 K54A K56A, sequence (Q9Y6K1 1-427 K54A/K56A): as the sequence (Q9Y6K1 1-427) above, with K54A, K56A counted along it

HisMBP-MeCP2 258-309 = HisMBP-MeCP2 258-309 (Homo sapiens, UniProt P51608 258-309); experiment: as above; details: protein: recombinant; tags: His-MBP; label: 5' 6-FAM; blunt
HisMBP-MeCP2 205-309 = HisMBP-MeCP2 205-309 (Homo sapiens, UniProt P51608 205-309); experiment: as above; details: protein: recombinant; tags: His-MBP; label: 5' 6-FAM; blunt

| Binder | Kd [1] [nM] | Kd [2] [nM] | binding result [3] | Kd [4] [nM] | Kd [5] [nM] | binding result [6] | Kd [7] [nM] | Kd [3] [nM] | Kd [8] [nM] | Kd [9] [nM] | Kd (HisMBP-DNMT3A 1-427) [nM] | Kd (HisMBP-MeCP2 162-309) [nM] | Kd [10] [nM] | binding result (HisMBP-MeCP2 272-309) | Kd [11] [nM] | Kd (HisMBP-MeCP2 258-309) [nM] | Kd (HisMBP-MeCP2 205-309) [nM] |
| --- | --- | --- | --- | --- | --- | --- | --- | --- | --- | --- | --- | --- | --- | --- | --- | --- | --- |
| B1 | 734 | 786 | no binding | 1970 | 1830 | – | – | – | – | – | – | – | – | – | – | – | – |
| B2 | 240 | – | – | 581 | 217 | no binding | 85.2 | 220 | 596 | 1000 | – | – | – | – | – | – | – |
| B3 | – | – | – | – | – | – | – | – | – | – | 87.8 ± 5.2 | 31.6 ± 1.7 | 216 ± 9.2 | no binding | 367 ± 27.5 | 167 ± 8.5 | 77.5 ± 4.8 |
